# Like-named read-outs stand apart in the source and are kept apart here.
# B1: Native M. tuberculosis H37Rv dodecin (natural protein)
# chain: MSNHTYRVIEIVGTSPDGVDAAIQGGLARAAQTMRALDWFEVQSIRGHLVDGAVAHFQVTMKVGFRLEDS
# notes: also called M.tb native dodecin; Tb
# Key:
# [1] = molecular target: Native M. bovis BCG Moreau dodecin (M. bovis BCG Moreau (endogenous)); test: SDS-PAGE and western blotting of oligomer bands; logarithmic phase mycobacterial lysates incubated 30 min at 40 or 80 °C, supernatants on SDS-PAGE, blot with anti-dodecin serum
# [2] = molecular target: Native M. bovis BCG Moreau dodecin (M. bovis BCG Moreau (endogenous)); test: SDS-PAGE and western blotting of oligomer bands; 20 ug total proteins of mycobacterial whole cell lysates (lag, logarithmic and stationary phase; 50 mM HEPES/KOH pH 7.5, 10 mM MgCl2, 60 mM NH4Cl, 10% glycerol), 15% SDS-PAGE, blot with anti-dodecin serum
# [3] = molecular target: Recombinant M. bovis BCG Moreau dodecin with C-terminal 6-His tag (M. bovis BCG Moreau); test: SDS-PAGE and western blotting of oligomer bands
# [4] = molecular target: Recombinant M. bovis BCG Moreau dodecin with C-terminal 6-His tag (M. bovis BCG Moreau); test: SDS-PAGE and western blotting of oligomer bands; remark: listed apart in the source
# [5] = molecular target: Recombinant M. tuberculosis H37Rv dodecin with C-terminal 6-His tag (Mycobacterium tuberculosis H37Rv) (UniProt I6XY36); test: SDS-PAGE and western blotting of oligomer bands
# [6] = molecular target: Recombinant M. tuberculosis H37Rv dodecin with C-terminal 6-His tag (Mycobacterium tuberculosis H37Rv) (UniProt I6XY36); test: SDS-PAGE and western blotting of oligomer bands; remark: listed apart in the source
# [7] = molecular target: the molecule itself; test: SDS-PAGE and western blotting of oligomer bands; 20 ug total proteins of mycobacterial whole cell lysates (lag, logarithmic and stationary phase; 50 mM HEPES/KOH pH 7.5, 10 mM MgCl2, 60 mM NH4Cl, 10% glycerol), 15% SDS-PAGE, blot with anti-dodecin serum
molecule,measurement,setting,value
Native M. bovis BCG Moreau dodecin (natural protein),stoichiometry N,[1],6
same,stoichiometry N,[2],6
Recombinant M. bovis BCG Moreau dodecin with C-terminal 6-His tag (natural protein),stoichiometry N,[3],12
same,stoichiometry N,[4],4
Recombinant M. tuberculosis H37Rv dodecin with C-terminal 6-His tag (from UniProt I6XY36 1-70) (natural protein),stoichiometry N,[5],4
same,stoichiometry N,[6],12
B1,stoichiometry N,[7],6
